Measured values from article PMC11940775, “A Bifunctional Phosphoglucomutase/Phosphomannomutase from Thermococcus kodakarensis: Biophysical Analysis and Cryo-EM Structure” (Biomolecules, 2025).

Molecular target: the molecule itself
Assay: SEC; HiLoad 16/60 Superdex 200 pg, 50 mM HEPES pH 7.0 + 200 mM NaCl, against standard protein markers; self-association

B1: Phosphoglucomutase/phosphomannomutase from Thermococcus kodakarensis (PGMTk) (enzyme)
chain: MGKLFGTFGVRGIANEEITPEFALKIGMAFGTLLKREGRERPLVVVGRDTRVSGEMLKDALISGLLSTGCDVIDVGIAPTPAIQWATNHFNADGGAVITASHNPPEYNGIKLLEPNGMGLKKEREAIVEELFFSEDFHRAKWNEIGELRKEDIIKPYIEAIKNRVDVEAIKKRRPFVVVDTSNGAGSLTLPYLLRELGCKVVSVNAHPDGHFPARNPEPNEENLKGFMEIVKALGADFGVAQDGDADRAVFIDENGRFIQGDKTFALVADAVLRENGGGLLVTTIATSNLLDDIAKRNGAKVMRTKVGDLIVARALLENNGTIGGEENGGVIFPDFVLGRDGAMTTAKIVEIFAKSGKKFSELIDELPKYYQFKTKRHVEGDRKAIVAKVAELAEKKGYKIDTTDGTKIIFDDGWVLVRASGTEPIIRIFSEAKSEEKAREYLELGIKLLEEALKG
notes: Phosphoglucomutase/phosphomannomutase PGMTk, product of gene Tk1108 of Thermococcus kodakarensis, UniProt Q68BJ6; His6 and a TEV protease site were put upstream of the gene; also called Tk1108; TK1108; source: E. coli Rosetta 2(DE3)pLysS, purified (heat treatment at 85 °C, Ni-NTA, Superdex 200 gel filtration)
stoichiometry N: 4
